Data on one molecule can be found in publication PMC7505961.

The assay addresses 145-Tailless nucleosome (145 bp Widom 601 DNA with tailless histone mutants H4-del 1-20, H3-del 1-37, H2A-del 1-15 and H2B-del 1-31), P06897. As to the kind of experiment: native gel or EMSA; FAM-labelled nucleosome (0.8 pmol; oligonucleosomes 0.1 pmol) mixed with different amounts of cGAS in 20 mM Tris-HCl pH 7.6, 60 mM NaCl, 5 mM MgCl2, total volume 10 ul; on ice 30 min; 1.5% agarose gel, 0.2x TBE; Kd from percent bound nucleosome against cGAS concentration. Conditions: remark: other sources report otherwise. A general note: In EMSA bound probe runs differently from free probe, usually more slowly.

B1: human cGAS (cGMP-AMP synthase), Q8N884 1-522 (enzyme)
chain: MQPWHGKAMQRASEAGATAPKASARNARGAPMDPTESPAAPEAALPKAGKFGPARKSGSRQKKSAPDTQERPPVRATGARAKKAPQRAQDTQPSDATSAPGAEGLEPPAAREPALSRAGSCRQRGARCSTKPRPPPGPWDVPSPGLPVSAPILVRRDAAPGASKLRAVLEKLKLSRDDISTAAGMVKGVVDHLLLRLKCDSAFRGVGLLNTGSYYEHVKISAPNEFDVMFKLEVPRIQLEEYSNTRAYYFVKFKRNPKENPLSQFLEGEILSASKMLSKFRKIIKEEINDIKDTDVIMKRKRGGSPAVTLLISEKISVDITLALESKSSWPASTQEGLRIQNWLSAKVRKQLRLKPFYLVPKHAKEGNGFQEETWRLSFSHIEKEILNNHGKSKTCCENKEEKCCRKDCLKLMKYLLEQLKERFKDKKHLDKFSSYHVKTAFFHVCTQNPQDSQWDRKDLGLCFDNCVTYFLQCLRTEKLENYFIPEFNLFSSNLIDKRSKEFLTKQIEYERNNEFPVFDEF
By Kd is commonly meant a measure of binding affinity in units of concentration. Regarding B1, the Kd came out at 79 nM. This lies in the double-digit nanomolar range.
